The subject of this series is Escherichia coli TOP10. The series is described as follows: shrunken log2 fold change of peptide-encoding DNA abundance (4.5 h post-induction vs induction); higher = less antimicrobial activity (less host growth inhibition). The conditions noted are these: time post-induction: 4.5 h; library: site-saturation at positions 5, 18, 19, 20.

This is an account of results in the supplement of paper PMC9112550, “Optimization of the antimicrobial peptide Bac7 by deep mutational scanning” (BMC Biology, 2022).
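Also: peptides expressed intracellularly from a pBAD plasmid library in pooled LB shake-flask culture, induced with 0.3% L-arabinose, DNA abundance read by NGS, three biological replicates, DESeq2 with apeglm shrinkage.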

In the case of RRIRRRPPRLPRPRPRPLIFPRP, the “shrunken log2 fold change” value is -0.00389.

RRIRKRPPRLPRPRPRPGCGPRP: the “shrunken log2 fold change” value was 0.761.

Take RRIRARPPRLPRPRPRPCRMPRP: the “shrunken log2 fold change” value is -0.353.

Regarding RRIRERPPRLPRPRPRPRYAPRP, the “shrunken log2 fold change” value is -0.118.

Take RRIRFRPPRLPRPRPRPFYNPRP: the “shrunken log2 fold change” value is -0.468.

For RRIRKRPPRLPRPRPRPQCHPRP, the “shrunken log2 fold change” value was determined as 0.273.

Turning to RRIRNRPPRLPRPRPRPIQCPRP, the “shrunken log2 fold change” value is -0.01.

With RRIRKRPPRLPRPRPRPAWSPRP, the “shrunken log2 fold change” value is 0.202.

Take RRIRPRPPRLPRPRPRPRIFPRP: the “shrunken log2 fold change” value was -0.0669.

For RRIRNRPPRLPRPRPRPRDTPRP, the “shrunken log2 fold change” value is -0.457.

In the case of RRIRERPPRLPRPRPRPMRRPRP, the “shrunken log2 fold change” value is -0.0292.

As for RRIRRRPPRLPRPRPRPHGPPRP, the “shrunken log2 fold change” value was found to be 0.267.

Regarding RRIRYRPPRLPRPRPRPPVCPRP, the “shrunken log2 fold change” value turned out to be 0.065.

As to RRIRWRPPRLPRPRPRPGMYPRP, the “shrunken log2 fold change” value was 0.0165.

For the sequence RRIRLRPPRLPRPRPRPQTRPRP, the “shrunken log2 fold change” value is 0.08.

Turning to RRIRKRPPRLPRPRPRPTEVPRP, the “shrunken log2 fold change” value was determined as 0.158.

For the sequence RRIRNRPPRLPRPRPRPHICPRP, the “shrunken log2 fold change” value is -0.0994.

In the case of RRIRRRPPRLPRPRPRPMFWPRP, the “shrunken log2 fold change” value came out at 0.506.

Consider RRIRTRPPRLPRPRPRPFLPPRP, for which the “shrunken log2 fold change” value was -0.279.

Regarding RRIRARPPRLPRPRPRPMMFPRP, the “shrunken log2 fold change” value stood at 0.166.

As for RRIRNRPPRLPRPRPRPKMMPRP, the “shrunken log2 fold change” value was -0.249.

On to RRIRVRPPRLPRPRPRPSFFPRP, for which the “shrunken log2 fold change” value is -0.2.

In the case of RRIRCRPPRLPRPRPRPHPKPRP, the “shrunken log2 fold change” value was -0.102.

RRIRPRPPRLPRPRPRPTRPPRP: the “shrunken log2 fold change” value was determined as 0.782.

For the sequence RRIRIRPPRLPRPRPRPDFQPRP, the “shrunken log2 fold change” value is -0.125.

Turning to RRIRGRPPRLPRPRPRPPARPRP, the “shrunken log2 fold change” value was 1.2.

RRIRMRPPRLPRPRPRPPLEPRP: the “shrunken log2 fold change” value amounted to 0.873.

In the case of RRIRCRPPRLPRPRPRPTWWPRP, the “shrunken log2 fold change” value is 0.294.

Take RRIRLRPPRLPRPRPRPYGCPRP: the “shrunken log2 fold change” value was -0.318.

On to RRIRVRPPRLPRPRPRPRRIPRP, for which the “shrunken log2 fold change” value was -0.0306.

Regarding RRIRQRPPRLPRPRPRPEAHPRP, the “shrunken log2 fold change” value stood at 0.0944.

On to RRIRCRPPRLPRPRPRPANCPRP, for which the “shrunken log2 fold change” value was -0.364.

For the sequence RRIRNRPPRLPRPRPRPTCFPRP, the “shrunken log2 fold change” value was determined as 0.0784.

RRIRKRPPRLPRPRPRPWRIPRP: the “shrunken log2 fold change” value was 0.0387.

Consider RRIRQRPPRLPRPRPRPWVNPRP, for which the “shrunken log2 fold change” value was -0.215.

Regarding RRIRFRPPRLPRPRPRPKKPPRP, the “shrunken log2 fold change” value is -0.0169.

In the case of RRIRVRPPRLPRPRPRPNWVPRP, the “shrunken log2 fold change” value was found to be 0.213.

RRIRARPPRLPRPRPRPTWAPRP: the “shrunken log2 fold change” value amounted to 0.621.

In the case of RRIRMRPPRLPRPRPRPYKKPRP, the “shrunken log2 fold change” value was -0.161.

As for RRIRYRPPRLPRPRPRPNFEPRP, the “shrunken log2 fold change” value is -0.242.

Regarding RRIRHRPPRLPRPRPRPGAVPRP, the “shrunken log2 fold change” value was determined as 0.433.

RRIRCRPPRLPRPRPRPKGEPRP: the “shrunken log2 fold change” value is 0.0643.

Regarding RRIRSRPPRLPRPRPRPKSIPRP, the “shrunken log2 fold change” value was -0.228.

Consider RRIRRRPPRLPRPRPRPKWTPRP, for which the “shrunken log2 fold change” value is -0.149.

Take RRIRDRPPRLPRPRPRPSQGPRP: the “shrunken log2 fold change” value was -0.0558.

In the case of RRIRMRPPRLPRPRPRPWRMPRP, the “shrunken log2 fold change” value is 0.0682.

Consider RRIRKRPPRLPRPRPRPATIPRP, for which the “shrunken log2 fold change” value amounted to 0.00392.

Turning to RRIRRRPPRLPRPRPRPWMEPRP, the “shrunken log2 fold change” value was -0.137.

Take RRIRFRPPRLPRPRPRPMVHPRP: the “shrunken log2 fold change” value is -0.468.

Turning to RRIRTRPPRLPRPRPRPWWHPRP, the “shrunken log2 fold change” value is -0.279.

With RRIRSRPPRLPRPRPRPDYQPRP, the “shrunken log2 fold change” value is -0.242.

Take RRIRMRPPRLPRPRPRPPCRPRP: the “shrunken log2 fold change” value was determined as 0.584.

As to RRIRSRPPRLPRPRPRPMIYPRP, the “shrunken log2 fold change” value is -0.257.

Consider RRIRDRPPRLPRPRPRPTHMPRP, for which the “shrunken log2 fold change” value worked out at 0.381.

Regarding RRIRERPPRLPRPRPRPVKMPRP, the “shrunken log2 fold change” value was -0.0989.

With RRIRHRPPRLPRPRPRPEWAPRP, the “shrunken log2 fold change” value was -0.0848.

In the case of RRIRCRPPRLPRPRPRPVVVPRP, the “shrunken log2 fold change” value was -0.203.

For RRIRERPPRLPRPRPRPHYQPRP, the “shrunken log2 fold change” value was -0.267.

Consider RRIRKRPPRLPRPRPRPVQHPRP, for which the “shrunken log2 fold change” value was determined as 0.134.

Take RRIRDRPPRLPRPRPRPKRLPRP: the “shrunken log2 fold change” value is -0.0451.

RRIRMRPPRLPRPRPRPFEMPRP: the “shrunken log2 fold change” value was found to be 0.0316.

As to RRIRHRPPRLPRPRPRPPNPPRP, the “shrunken log2 fold change” value was 0.238.

As for RRIRVRPPRLPRPRPRPQQRPRP, the “shrunken log2 fold change” value was 0.0774.

For RRIRYRPPRLPRPRPRPLGFPRP, the “shrunken log2 fold change” value was -0.662.

Consider RRIRKRPPRLPRPRPRPSNRPRP, for which the “shrunken log2 fold change” value was -0.00152.

For RRIRTRPPRLPRPRPRPCYQPRP, the “shrunken log2 fold change” value was -0.335.

Take RRIRNRPPRLPRPRPRPQSRPRP: the “shrunken log2 fold change” value was 0.181.

Take RRIRSRPPRLPRPRPRPSPTPRP: the “shrunken log2 fold change” value is -0.0425.

With RRIRYRPPRLPRPRPRPGVIPRP, the “shrunken log2 fold change” value is -0.297.

Regarding RRIRMRPPRLPRPRPRPTKYPRP, the “shrunken log2 fold change” value was -0.152.

Regarding RRIRSRPPRLPRPRPRPRALPRP, the “shrunken log2 fold change” value came to 0.0323.

For the sequence RRIRRRPPRLPRPRPRPCKGPRP, the “shrunken log2 fold change” value was 0.0306.

Consider RRIRLRPPRLPRPRPRPTAVPRP, for which the “shrunken log2 fold change” value was 0.0335.

Consider RRIRERPPRLPRPRPRPNEYPRP, for which the “shrunken log2 fold change” value was -0.726.

In the case of RRIRSRPPRLPRPRPRPHAAPRP, the “shrunken log2 fold change” value worked out at 0.331.

Consider RRIRWRPPRLPRPRPRPQRSPRP, for which the “shrunken log2 fold change” value was found to be 0.172.

Consider RRIRRRPPRLPRPRPRPQSTPRP, for which the “shrunken log2 fold change” value is -0.095.

Regarding RRIRWRPPRLPRPRPRPWYYPRP, the “shrunken log2 fold change” value was -0.321.

In the case of RRIRCRPPRLPRPRPRPNCYPRP, the “shrunken log2 fold change” value is -0.209.

RRIRNRPPRLPRPRPRPKDHPRP: the “shrunken log2 fold change” value was -0.218.

As to RRIRGRPPRLPRPRPRPIFMPRP, the “shrunken log2 fold change” value stood at 0.283.

For RRIRPRPPRLPRPRPRPKIAPRP, the “shrunken log2 fold change” value was -0.1.

RRIRMRPPRLPRPRPRPYAGPRP: the “shrunken log2 fold change” value is -0.0412.

Turning to RRIRLRPPRLPRPRPRPDGLPRP, the “shrunken log2 fold change” value was -0.115.

With RRIRIRPPRLPRPRPRPITFPRP, the “shrunken log2 fold change” value is -1.1.

RRIRQRPPRLPRPRPRPGTSPRP: the “shrunken log2 fold change” value is -0.523.

In the case of RRIRKRPPRLPRPRPRPRVPPRP, the “shrunken log2 fold change” value was found to be 0.0172.

As for RRIRARPPRLPRPRPRPHQKPRP, the “shrunken log2 fold change” value was -0.0267.

In the case of RRIRYRPPRLPRPRPRPQADPRP, the “shrunken log2 fold change” value is -0.323.

For RRIRPRPPRLPRPRPRPTRMPRP, the “shrunken log2 fold change” value was 0.479.

Turning to RRIRLRPPRLPRPRPRPYSKPRP, the “shrunken log2 fold change” value was -0.434.

As to RRIRPRPPRLPRPRPRPCNWPRP, the “shrunken log2 fold change” value is -0.0706.

Turning to RRIRTRPPRLPRPRPRPKGFPRP, the “shrunken log2 fold change” value amounted to 0.0975.

For the sequence RRIRPRPPRLPRPRPRPRAMPRP, the “shrunken log2 fold change” value stood at 0.292.

Take RRIRSRPPRLPRPRPRPMGFPRP: the “shrunken log2 fold change” value is -0.0207.

As for RRIRQRPPRLPRPRPRPGKFPRP, the “shrunken log2 fold change” value was -0.148.

With RRIRGRPPRLPRPRPRPTRCPRP, the “shrunken log2 fold change” value stood at 0.527.

As to RRIRRRPPRLPRPRPRPCAKPRP, the “shrunken log2 fold change” value was found to be 0.164.

As to RRIRIRPPRLPRPRPRPLWDPRP, the “shrunken log2 fold change” value is -0.113.

Regarding RRIRFRPPRLPRPRPRPSIKPRP, the “shrunken log2 fold change” value was -0.42.

Take RRIRCRPPRLPRPRPRPQYKPRP: the “shrunken log2 fold change” value was -0.991.

Turning to RRIRCRPPRLPRPRPRPPMSPRP, the “shrunken log2 fold change” value was -0.178.

As for RRIRHRPPRLPRPRPRPMMHPRP, the “shrunken log2 fold change” value was determined as 0.117.

Turning to RRIRVRPPRLPRPRPRPISEPRP, the “shrunken log2 fold change” value was -0.282.

On to RRIRDRPPRLPRPRPRPMFCPRP, for which the “shrunken log2 fold change” value came to 2.64.

RRIRDRPPRLPRPRPRPCHWPRP: the “shrunken log2 fold change” value is -0.00151.

RRIRQRPPRLPRPRPRPFWVPRP: the “shrunken log2 fold change” value was found to be 0.176.

RRIRHRPPRLPRPRPRPVQCPRP: the “shrunken log2 fold change” value is -0.00186.

RRIRTRPPRLPRPRPRPLISPRP: the “shrunken log2 fold change” value was -0.145.

As for RRIRKRPPRLPRPRPRPARCPRP, the “shrunken log2 fold change” value stood at 0.782.

For RRIRFRPPRLPRPRPRPHFMPRP, the “shrunken log2 fold change” value is -0.538.

With RRIRMRPPRLPRPRPRPMVEPRP, the “shrunken log2 fold change” value was 0.0167.

Take RRIRNRPPRLPRPRPRPDQSPRP: the “shrunken log2 fold change” value was 0.00307.

Regarding RRIRPRPPRLPRPRPRPFIHPRP, the “shrunken log2 fold change” value is -0.224.

In the case of RRIRCRPPRLPRPRPRPKDNPRP, the “shrunken log2 fold change” value is -0.273.

RRIRHRPPRLPRPRPRPSTAPRP: the “shrunken log2 fold change” value was -0.24.

For the sequence RRIRCRPPRLPRPRPRPPENPRP, the “shrunken log2 fold change” value was found to be 0.2.

Turning to RRIRLRPPRLPRPRPRPEMKPRP, the “shrunken log2 fold change” value is -0.169.

For the sequence RRIRLRPPRLPRPRPRPISQPRP, the “shrunken log2 fold change” value is -0.135.

As to RRIRVRPPRLPRPRPRPAEMPRP, the “shrunken log2 fold change” value stood at 0.0714.

Turning to RRIRSRPPRLPRPRPRPQSKPRP, the “shrunken log2 fold change” value is -0.0711.

In the case of RRIRKRPPRLPRPRPRPMRFPRP, the “shrunken log2 fold change” value was found to be 0.123.

Take RRIRHRPPRLPRPRPRPHNQPRP: the “shrunken log2 fold change” value is -0.521.

Take RRIRGRPPRLPRPRPRPEAPPRP: the “shrunken log2 fold change” value amounted to 1.73.

Turning to RRIRDRPPRLPRPRPRPCIIPRP, the “shrunken log2 fold change” value was -0.0943.
